Assay results: the DeepSol protein solubility set

Assay: soluble on expression in E. coli; label from the status in PepcDB or PDB records

Sequence	soluble on expression in E. coli
MAHHHHHHMMGHLTLPQLCLNVQHGKYSKKTQRPPTLSQRCVTTLISSRISRKLSPADCPTYTSTLLSAEGSTTENLKYNHRGPTTTFSATASNPIIFPN	not soluble
MLEEQLYLLACIFASRADTRNIKKLSTRLGSQSKYLEILCVLWPELDDPKNLLFLRELEEEVQSPEGEETTDEDVIVELLESDSSLIPLIESDTTTRSNRYHELQEFISKKLNNKTLENFEEWLRERILICNEMIPETPLLYSVLWETAKSKVLSTKFIGWVEGVLKPLDHLNKRLHLIFKINEWEKMPDSELFKIIFDGVEDMQGYIGIADVIEDELAPTLSYGKKWETFITEFFNKQQFSLKSDTNYQLFIKLYYSLEKGVKDNSEASRKLQSNVVDILFHNSENLFNLSSLTHKLDELWSILSGFPDEITIEEQKTITALEMKQFMEFFIKCSTKFSFKEIFAITQEEESAQLAHFSSLCHEEFNKANEISSFLQAMYETVLDISKDDKIFTRISMDEKLYSILEILLQMNEFAYIEAIIERFDYSNNTQIYELLVKFFWHFFNNASNGLRKEPEMKKASQTLQIIQKHMSQRAGTNLTKLEVLLEISDKLSHYSINLNKSHNGARDTAFKPSNILEYRDCPLDIISNLLELNPRLYKDLPTTKSLLFGIYDSLSINREGQTGKVEVDLMVLHIDYALVNLDFGTAYELGKQVFEICQEAGQHMMKALGDEHWLTFYQMGKFVDPNWVDNEIPTEIIVLQMSILGRLLEVCPLEEVEIVTSQWSTLELELSARDLVKDKYALDGQNDNKSKVGGIAREIFHNVTNF	soluble
MSLKAIFITGAGSGMGREGATLFHANGWRVGAIDRNEDGLAALRVQLGAERLWARAVDVTDKAALEGALADFCAGNVGGGLDMMWNNAGIGEGGWFEDVPYEAAVRVVDVNFKAVLTGAYAALPYLKKAPGSLMFSTSSSSGTYGMPRIAVYSATKHAVKGLTEALSVEWQRHGVRVADVLPGLIDTAILTSTRQHSDEGPYTISAEQIRAAAPKKGMFRLMPSSSVAEAAWRAYQHPTRLHWYVPRSIRWIDRLKGVSPEFVRRHIAKSLATLEPKREGHHHHHH	soluble
ASIPSSASVQLDSYNYDGSTFSGKIYVKNIAYSKKVTVVYADGSDNWNNNGNIIAASFSGPISGSNYEYWTFSASVKGIKEFYIKYEVSGKTYYDNNNSANYQVST	soluble
MASMTGGQQMGRIPGNSPRMVLLESEQFLTELTRLFQKCRSSGSVFITLKKYDGRTKPIPRKSSVEGLEPAENKCLLRATDGKRKISTVVSSKEVNKFQMAYSNLLRANMDGLKKRDKKNKSKKSKPAQGGEQKLISEEDDSAGSPMPQFQTWEEFSRAAEKLYLADPMKVRVVLKYRHVDGNLCIKVTDDLVCLVYRTDQAQDVKKIEKFHSQLMRLMVAKESRNVTMETE	soluble
MQEKSKMDCHGGISGTIYEYGALTIDGEEYIPFKQYAGKYVLFVNVASYGGLTGQYIELNALQEELAPFGLVILGFPCNQFGKQEPGENSEILPTLKYVRPGGGFVPNFQLFEKGDVNGEKEQKFYTFLKNSCPPTSELLGTSDRLFWEPMKVHDIRWNFEKFLVGPDGIPIMRWHHRTTVSNVKMDILSYMRRQAALGVAENLYFQ	soluble
MDKQLEAARKFLKDNVRQMVDFSQTAQNRRVPPPPIEKPMPEEAKTIPLPVIGKAKSAGNIDLWSAIGQRESCRFYADEPMSLDELSLLLWATQGVRLKLDAGHALRTVPSAGCRHAFETYLCVLNVESLDKGIYRYLPLEHALLCSHAPEKLESRIVRATLGQRFTGDAAVVFVWTAIPYRMEWRYGLAAHKVIALDAGHVCQNLYLACEAIGAGTCAIAAYDQDEMDRLLDVDGEEEFTIYLAPVGKKG	not soluble
GSMKKWSDTEVFEMLKRMYARVYGLVQGVGFRKFVQIHAIRLGIKGYAKNLPDGSVEVVAEGYEEALSKLLERIKQGPPAAEVEKVDYSFSEYKGEFEDFETY	soluble
GMTQPHQIILLAHGSSDARWCETFEKLAEPTVESIENAAIAYMELAEPSLDTIVNRAKGQGVEQFTVVPLFLAAGRHLRKDVPAMIERLEAEHGVTIRLAEPIGKNPRLGLAIRDVVKEELERSEH	soluble
MSLNEPDGVLSYQRPDEEAVVDQGGTSTILNIHYEKEELEGHRTLYVGVRMPLGRQSHRHHRTHGQKHRRRGGRGKGASQGEEGLEALAHDTPSQRVQFILGTEEDEEHVPHELFTELDEICMKEGEDAEWKETARWLKFEEDVEDGGERWSKPYVATLSLHSLFELRSCLINGSVLLDMRASSIEEISDLILDQQELLRDLSDSVRVKVREALLKKHHHQNERRRNNLIPIVRSFAEVGKKQSDPHSMDRDGQTVSPQSATNLEVKNGVNCEHSPVDLSKVDLHFMKKIPTGAEASNVLVGEVDTLDRPIVAFVRLSPAVLLSGLTEVPIPTRFLFILLGPVGKGQQYHEIGRSMATIMTDEIFHDVAYKAKERDDLLAGIDEFLDQVTVLPPGEWDPSIRIEPPKNVPSQEKRKMPGVPNGNVCHIEPEPHGGHSGEGHHHHHH	soluble
MVNYENVIVTEITETLTFFAQSVESGSKLESLMSKLHADFQSNPPIAGSYTPKRGDLVAAQFTLDNQWYRAKVERVQGSNATVLYIDYGNKETLPTNRLAALPPAFSSEKPYATEYALALVALPTDNEDKEEALRAFSEDVLNHKVQLNVELKVTGSPNLATLRDPTTKVDFGKQLVAEGLVLAEQRGERKLKELVDQYKAAQEAARVAHLAIWKYGD	soluble
MTDLELQQLVATISMHDFHRPFQHRAYFNARLRTTGGRYQLASHDIDINPKMLTDFDEATLIGVIKHELCHYHLHLTKRGYRHRDADFKRLLAQVGGSRYAPAPKQATARPYRYIYECQRCGRRYYRKRRMDTRRYTCGRCQGPIKLVLEHHHHHH	soluble
MAHHHHHHMRKIYIAGPAVFNPDMGASYYNKVRELLKKENVMPLIPTDNEATGALDIRQKNIQMIKDCDAVIADLSPFRGHEPDCGTAFEVGYAAALNKMVLTFTSDRRNMREKYGSEVDKDNLRVEGFGLPFNLMLYDGVEVFDSFESAFKYFLANFPSK	soluble
MGSDKIHHHHHHGTVSWNLREMLAHAEETRKLMPICMDVRAIMATIQRKYKGIKIQEGIVDYGVRFFFYTSKEPVASIITKLNSLNEPLVTMPIGYVTHGFNLEEAARCMRSLKAPAVVSVSSPDAVTTYNGYLTSSSKTSEEHFVETVSLAGSYRDWSYSGQRTELGVEFLKRGDKIVYHTLESPVEFHLDGEVLSLDKLKSLLS	soluble
MSLNTTFTKEDGTEVVIPFNGSQNGHPENEEPEVEEAAEPSSSVETLCGATRGDIIVMKHTTKALTELIERLLHSDEFEVRRCSNGQIISQGRCNGTTPGNGIGGGGASSEELEKALKDRDAARAEADKLHANYATLFASFNTVREAANDIRGEYEDARDKLKLAAAEVDEWQAKFLAVKDNANSELERASVEYDDLLRSHDENTKGLRLRVKRQEIELSSKNDEIKVLTNRVSELSQICDQLLNDVDVSDGMSVISTDA	not soluble
MGSDKIHHHHHHMKSPEEVTKWVRQRYQRQRWAWLDGGGAWPLQVSLDLPTQKVALADPSAVRTWSSSWADWLAVHPADASRPLPELLTATVAWRNMGEQTLPGALAFSSPECVADYCGDGKVWRRIVSRRATMLARWPALHASGFGSNYTALGEFKDEDFERLLAVLEWLVANPKSGIYLRQLPVPNIDTKWIDLQRRGVVADLFSRIIKPQAALQAVQSFVEGEGAEIDATGQAYSIEKESSNFYDTCGLLRPPVKLRILILCPKLRTQVGGLRDIEATIEDWAQLQLKPRQLLVVENKDTCLAMPDVDGVVAVIKLGNAVALVTRIAWLVRVPVLYWGDIDTYGYSILVQARKKLHDVRSVLMDRSTVETHLDRLVEEGQQTKSIDRSLLTAAELDVYDALLAHDWGTSRRLEQERLEWPSALRTVLSALHQRESKSA	not soluble
MPTLKYLPHYPPALVQQAQALFDSGELGALLRSKYPDGHDVQTDKALYQFVSALKQRHLKNAPLPAKVLYDNQQHPLKGTLGTNTTISRVQGGRLKSKSEIRIASLFRELPLPFLQMIVVHELAHLKVRDHDKAFYQLCCHMQPDYHQLEFDLRLWLNWREQRRNLEHHHHHH	soluble
